Laboratory results from publication PMC2266626.

Experiments:
Test in all cases: FRET or BRET
[1] = target: YFP-GKC (rat)
[2] = target: YFP-α1C (α1C[1671]) (UniProt P15381)
[3] = target: YFP-GKC[trunc] (rat)
[4] = target: YFP-GKC[ΔPYDVV] (rat)

Row | FRET ratio (FR) [1] | K d,EFF (relative dissociation constant) [1] | effective FRET efficiency (E EFF) [1] [%] | FRET ratio (FR) [2] | K d,EFF (relative dissociation constant) [2] | FRET ratio (FR) [3] | K d,EFF (relative dissociation constant) [3] | effective FRET efficiency (E EFF) [3] [%] | FRET ratio (FR) [4] | effective FRET efficiency (E EFF) [4] [%] | Substance
1 | 2.8 | 1870 | 10.2 | 1.68 | 11700 | 3.7 | 3090 | 15.5 | – | – | CFP-NSH3 (domain or fragment)
2 | 5.4 | – | 25.6 | – | – | – | – | – | 5.5 | 26.1 | CFP-α1C[I-II loop] (domain or fragment)
